Assays:
[1] = molecular target: T1, PSMGFR peptide of the MUC1* extracellular domain (Homo sapiens, UniProt P15941); assay: ELISA binding to PSMGFR peptide; conditions: FIG. 47, FIG. 48b
T1 sequence (P15941 1110-1154 limits assumed): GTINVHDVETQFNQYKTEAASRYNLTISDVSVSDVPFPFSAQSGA
Source text: We made recombinant human NM23, also called NME1, dimers that bear the […] mutation that stabilizes dimers. We previously reported that human NME1 dimers bind to the PSMGFR portion of the extracellular domain of the MUC1* receptor (Smagghe et al. 2013). We also made recombinant human NME7-AB that is secreted as a monomer. […] We made recombinant bacterial NME proteins found in Halomonas Sp. 593 (‘HSP 593’) and in Porphyromonas gingivalis W83 that had high sequence homology to human NME1 and had been reported to exist in dimer state (FIG. 48 and FIG. 49). HSP 593 expressed well in E. coli and a significant portion was present as a dimer, which population was then purified by FPLC and confirmed the dimer population (FIG. 48a).

T47D cancer stem cells = assay: Tumor initiation and metastasis from low numbers of NME7-AB-induced T47D cancer stem cells, with or without daily NME7-AB injections; type: in vivo, nu/nu female mice
Description: T47D breast cancer cells were cultured as described in Example 3a above. After 7-10 days culture in minimal media to which was added rhNME7-AB to a final concentration of 4 nM, floating cells were collected. […] The floating cells were counted and re-suspended in PBS. The NME7-induced cancer stem cells were mixed 1:2 with reduced growth factor Matrigel; that is 2 parts Matrigel to 1 part cells. A range of ratios of cancer cells to NME7 or the injection schedule of NME7 is expected to vary from one mouse strain to another and from one tumor type to another.
The cancer stem cells were implanted in the flank of female nu/nu mice which had previously been implanted with a 90-day release estrogen pellet in the shoulder area. Four (4) groups of six (6) mice each were implanted with either 50, 100, 1,000 or 10,000 T47D cancer stem cells. In each case the total volume injected into each mouse was 100 uL. Half of the mice in each group were injected daily with 200 uL of recombinant human NME7-AB in the flank near but not at the cancer stem cell implantation site.
Animals were monitored for food intake and body weight, which were normal and stable. Two (2) independent and blinded tumor measurements were taken once a week and recorded.

[2] = test system: Human HES-3 embryonic stem cells; assay: Human embryonic stem cell culture with NME protein as only growth factor; type: cell-based; conditions: serum-free minimal base media, agent as the only growth factor or cytokine
Source text: Factors that are able to maintain stem cells in the naive state are also able to transform cells to a cancer-like or stem-like state and are also able to transform cancer cells to a cancer stem cell state or a more metastatic state. Herein, we have shown several examples of bacterial NME1 being able to function like human NME1 dimers, which are also able to function like NME7 or NME7-AB. However, the primary example that these factors function in a very similar way is their ability to promote the growth of stem cells, inhibit differentiation and maintain them in the naive state. […] Human HES-3 embryonic stem cells were cultured in a serum-free minimal base media with either HSP 593, human NME1 or NME7-dimers or human NME7-AB as the only growth factor or cytokine. […] Several examples have been presented here that indicate that contacting cells with an agent or agents that are able to revert stem cells from the primed state to the less mature naive state are also able to revert a wide variety of cell types to a less mature state: somatic cells to stem or progenitor cells or cancer cells to more metastatic state also called cancer stem cell state. Therefore, the invention is not meant to be limited to a specific cell type or a specific cancer cell type.

T47D breast cancer cells = assay: T47D xenograft engraftment, cells mixed with Matrigel plus NME7, with or without daily NME7 injections; type: in vivo, nu/nu mice
Description: Example 1: Immune-compromised nu/nu mice between 40-60 days old were implanted with 90-day estrogen release pellets to foster the engraftment and growth of breast tumor cells. Human T47D breast cancer cells were mixed 1:2 with Matrigel then injected into the flank of the mouse (4 million each mouse), six (6) mice per group. In a second group, cancer cells were mixed with Matrigel at the same 1:2 ratio (100 uL cells: 200 ul Matrigel) except, human recombinant NME7-AB was added into the cell/Matrigel mix to a final NME7 concentration of 16 nM (6 mice). Of those six (6) mice, three (3) were randomly chosen to receive NME7 injections daily (100 uL at 32 nM), after day 14. […] After Day 14, the mice whose tumor cells were mixed with NME7 were also injected once daily with human recombinant NME7. […] After Day 14, half of the mice were also injected once daily with human recombinant NME7. […] Dashed lines indicate mice that were also injected with NME7 after Day 14.

human fibroblasts = assay: RT-PCR of stem/cancer markers and chromatin rearrangement factors in fibroblasts cultured with NME proteins; type: cell-based; conditions: after 15-20 days in culture
Description: Agents that are able to maintain stem cells in the naive state are also able to transform somatic cells to a cancer or stem-like state. Human NME1 dimer or human NME7 are able to make somatic cells revert to a less mature state, expressing stem and cancer cell markers. Bacterial NME from HSP 593 was tested alongside the human homologs to determine if it could mimic their function by being able to revert somatic cells to a cancer-like state. Human fibroblasts were cultured in a serum-free minimal base media with either HSP 593, human NME1 dimers or human NME7-AB as the only growth factor or cytokine. […] Recalling that stem cells and metastatic cancer cells can grow anchorage-independently, we repeated the experiments but this time a rho kinase inhibitor was added to one set of cells to make the cells adhere to the surface. […] Photos of the experiment show the dramatic change in morphology as the fibroblasts revert when cultured in human or bacterial NME, FIGS. 52-59. The relative order of efficiency of reverting somatic cells to a less mature state was NME7>NME1 dimers >NME1 bacterial. […] However, Bacterial NME from HSP 593 apparently up-regulates expression of human NME7 and NME1.
Example 3d: In this example, fibroblast cells were cultured in the presence of recombinant human NME1/NM23 dimers, bacterial HSP593 NME1 dimers or NME7-AB. The fibroblasts were cultured in their normal media as a control, which is for 500 mL, 445 mL DMEM high glucose base media, 5 mL GlutaMAX and 50 mL of fetal bovine serum (FBS). After 15-20 days in culture with either NME1/NM23 dimers, bacterial HSP593 NME1 dimers or NME7-AB, the morphology of the cells completely changed so that they no longer were recognizable as fibroblasts. […] Here, ‘minus ROCi’ refers to cells that became non-adherent and floated off the surface.

B1: NME7-AB: recombinant human NME7 variant (A and B domains, SEQ ID NO:39) secreted as a monomer; 'NME7' in the experiments means this protein (protein)
chain: MEKTLALIKPDAISKAGEIIEIINKAGFTITKLKMMMLSRKEALDFHVDHQSRPFFNELIQFITTGPIIAMEILRDDAICEWKRLLGPANSGVARTDASESIRALFGTDGIRNAAHGPDSFASAAREMELFFPSSGGCGPANTAKFTNCTCCIVKPHAVSEGLLGKILMAIRDAGFEISAMQMFNMDRVNVEEFYEVYKGVVTEYHDMVTEMYSGPCVAMEIQQNNATKTFREFCGPADPEIARHLRPGTLRAIFGKTKIQNAVHCTDLPEDGLLEVQYFFKILDN
modifications: Human NME7-AB
notes: 'NME7' in the experiments means this protein
Q: Which “binding to PSMGFR portion of the MUC1* extracellular domain” value [1] does the source give for B1 here?
A: bind to and dimerize

Q: What about the “mice that developed tumors” value (T47D cancer stem cells; all 24 mice implanted with 50, 100, 1,000 or 10,000 NME7-induced cancer stem cells) of the same molecule?
A: 67%

Q: And the “number of implanted cells that initiate tumors in mice” value (T47D cancer stem cells; cancer stem cells generated by culture in NME7-AB)?
A: ≤ 50 cells

Q: What about the “time after which cancers metastasized” value (T47D cancer stem cells; group injected with NME7 daily) of the same molecule?
A: about 50 days

Q: What about the “mice that formed tumors” value (T47D cancer stem cells; implanted with NME7-induced cancer stem cells and receiving daily injections of NME7) of the same molecule?
A: 83%

Q: What about the “mice that formed tumors” value (T47D cancer stem cells; implanted with NME7-induced cancer stem cells, no circulating NME7 (no daily injections)) of the same molecule?
A: 50%

Q: And the “tumor-bearing mice that developed cancer metastasis (multiple tumors)” value (T47D cancer stem cells; of the daily NME7-injected mice that formed tumors, by approximately Day 50)?
A: 80%

Q: And the “support of human stem cell growth” value [2]?
A: fully supported human stem cell growth

Q: What about the engraftment rate (T47D breast cancer cells; cancer cells mixed with NME7 prior to implantation alone) of the same molecule?
A: 33%

Q: And the engraftment rate (T47D breast cancer cells; mixed with NME7 prior to implantation plus NME7 injections into the animal after cell implantation)?
A: 66%

Q: What about the “implanted mice showing tumor growth characteristic of engraftment” value (T47D breast cancer cells; of six (6) implanted mice, T47D mixed with Matrigel and NME7 (two of six with standard Matrigel)) of the same molecule?
A: 4

Q: What about the “average growth increase from Day 7 until day 21” value (T47D breast cancer cells; tumors mixed with NME7 prior to implantation (57% without it)) of the same molecule?
A: 144%

Q: And the “expression of stem cell marker genes OCT4 and NANOG” value (human fibroblasts; FIG. 15)?
A: greatly increased expression

Q: And the “expression of BRD4, JMJD6, MBD3 and CHD4” value (human fibroblasts; FIG. 16)?
A: decreased expression

From patent US20220193270A1, “METHOD FOR ENHANCING TUMOR GROWTH” (MINERVA BIOTECHNOLOGIES CORPORATION, priority 2013, published 2022)
